In this assay the target is endogenous PKM2 (human (endogenous in CRC cells)) (UniProt P14618). The experiment in a line: not stated; monomeric, dimeric and tetrameric forms of endogenous PKM2 in HCT116 cells with or without DDX39B overexpression (Supplementary Fig. 7c).

Chain of endogenous PKM2, P14618 1-531 (natural protein; other documents disagree on this pair) (P14618 whole entry): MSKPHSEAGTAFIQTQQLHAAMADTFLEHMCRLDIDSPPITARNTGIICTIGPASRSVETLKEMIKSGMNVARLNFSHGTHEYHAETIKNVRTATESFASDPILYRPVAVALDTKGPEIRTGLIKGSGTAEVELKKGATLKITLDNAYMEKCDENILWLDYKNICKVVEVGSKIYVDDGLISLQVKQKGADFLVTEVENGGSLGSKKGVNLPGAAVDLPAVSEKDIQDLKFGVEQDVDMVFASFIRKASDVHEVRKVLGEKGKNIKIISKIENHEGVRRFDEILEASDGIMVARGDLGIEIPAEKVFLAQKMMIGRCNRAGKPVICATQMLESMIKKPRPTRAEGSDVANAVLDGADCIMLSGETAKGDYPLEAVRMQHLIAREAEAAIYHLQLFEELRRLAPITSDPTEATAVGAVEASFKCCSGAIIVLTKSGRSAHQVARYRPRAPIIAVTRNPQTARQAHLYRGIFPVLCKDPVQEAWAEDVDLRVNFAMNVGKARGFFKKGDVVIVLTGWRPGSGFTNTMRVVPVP

With “endogenous PKM2, P14618 1-531 (natural protein; other documents disagree on this pair)”, the stoichiometry N was found to be 2.

These data come from article PMC9381590.
